In the RNAGym collection of RNA variant scans (doi:10.7554/elife.80360) one finds self-cleavage data, which are given here for 78 variants.

B1: CPEB3 Ribozyme (parent)
chain: GGGGGCCACAGCAGAAGCGUUCACGUCGCGGCCCCUGUCAGAUUCUGGUGAAUCUGCGAAUUCUGCUGU

The variants in the data set derive from B1. The data set is described as follows: self-cleavage, relative activity (ratio to wild type); higher = more cleavage; co-transcriptional.
Regarding GGGGGCCACAGAAGAAGCGUUGACGUCGCGGCCCCUGUCAGAUUCUGGUGAAUCUGCGAAUUCUGCUGU, the self-cleavage amounted to 0.129.
Consider GGGGGCCACAGAAGAAGCGUUUACGUCGCGGCCCCUGUCAGAUUCUGGUGAAUCUGCGAAUUCUGCUGU, for which the self-cleavage is 0.111.
With GGGGGCCACAGAAGAAGCGUUAACGUCGCGGCCCCUGUCAGAUUCUGGUGAAUCUGCGAAUUCUGCUGU the figure was 0.144; with GGGGGCCACAGAAGAAGCGUUCACGUCGCGGCCCCUGUCACAUUCUGGUGAAUCUGCGAAUUCUGCUGU, 0.191; with GGGGGCCACAGAAGAAGCGUUCACGUCGCGGCCCCUGUCAUAUUCUGGUGAAUCUGCGAAUUCUGCUGU, 0.286.
With GGGGGCCACAGAAGAAGCGUUCACGUUGCGGCCCCUGUCAGAUUCUGGUGAAUCUGCGAAUUCUGCUGU the figure was 0.117; with GGGGGCCACAGAAGAAGCGUUCACGUAGCGGCCCCUGUCAGAUUCUGGUGAAUCUGCGAAUUCUGCUGU, 0.145.
Under GGGGGCCACAGAAGAAGCGUUCACGUCGCGGCCCCUGUCAGAUUCUGGUGAAUCUGCGAAUUGUGCUGU stands 0.354; under GGGGGCCACAGAAGAAGCGUUCACGUCGCGGCCCCUGUCAGAUUCUGGUGAAUCUGCGAAUUCUUCUGU, 0.932; under GGGGGCCACAGAAGAAGCGUUCACGUCGCGGCCCCUGUCAGAUUCUGGUGAAUCUGCGAAUUCUACUGU, 0.887.
On to GGGGGCCACAGAAGAAGCGUUCACGUCGCGGCCCCUGUCAGAUUCUGAUGAAUCUGCGAAUUCUGCUGU, for which the self-cleavage is 0.833.
With GGGGGCCACAGAAGAAGCGUUCACGUCGCGGCCCCUGUCAGAUUCUGCUGAAUCUGCGAAUUCUGCUGU the figure was 0.771.
With GGGGGCCACAGAAGAAGCGUUCACGUCGCGGCCCCUGUCAGAUUCUGGUGAAUCUGCGAAUUCUGAUGU the figure was 0.686; with GGGGGCCACAGAAGAAGCGUUCACGUCGCGGCCCCUGUCAGAUUCUGGUGAAUCUGCGAAUUCUGGUGU, 0.561; with GGGGGCCACAGAAGAAGCGUUCACGUCGCUGCCCCUGUCAGAUUCUGGUGAAUCUGCGAAUUCUGCUGU, 0.212.
As for GGGGGCCACAGAAGAAGCGUUCACGUCGCAGCCCCUGUCAGAUUCUGGUGAAUCUGCGAAUUCUGCUGU, the self-cleavage was 0.322.
With GGGGGCCACAGAACAAGCGUUCACGUCGCGGCCCCUGUCAGAUUCUGGUGAAUCUGCGAAUUCUGCUGU the figure was 0.126; with GGGGGCCACAGAAGAAGCGUUCACGUCGCGGCCCCUGUCAGAUUCUGGUGAAUCUACGAAUUCUGCUGU, 0.502.
With GGGGGCCACAGAAGAAGCGUUCACGUCGCGGCCCCUGUCAGAUUCUGGUGAAUCUCCGAAUUCUGCUGU the figure was 0.348.
For GGGGGCCACAGAAGAAGCGUUCACGUCGCGGCCCCUGUCAGAUUCUGGUGAAUCUUCGAAUUCUGCUGU, the self-cleavage was 0.296.
Under GGGGGCCACAGAAGAAGCGUUCACGUCGCGGCCCCUGUCAGAUUGUGGUGAAUCUGCGAAUUCUGCUGU stands 0.614.
Under GGGGGCCACAGAAGAAGCGUUCACGUCGCGGCCCCUGUCAGAUUAUGGUGAAUCUGCGAAUUCUGCUGU stands 0.579; under GGGGGCCACAGAAGAAGCGUUCACGUCGCGGCCCCUGUCAGAUUCUGGUGAAUCUGCGAAUUCUGCUAU, 0.843.
With GGGGGCCACAGAAGAAGCGUUCACGUCGCGGCCCCUGUCAGAUUCUGGUGAAUCUGCGAAUUCUGCUUU the figure was 0.807; with GGGGGCCACAGAAGAAGCGUUCACGUCGCGGCCCCUGUCAGAUUCUGGUGAAUCUGCGAAUUCUGCUCU, 0.842.
Take GGGGGCCACAGAAGAAGCGUUCACGUCGCGGCCCCUGUCAGAUUCUGGUGAGUCUGCGAAUUCUGCUGU: the self-cleavage amounted to 0.788.
As to GGGGGCCACAGAAGAAGCGUUCACGUCGCGGCCCCUGUCAGAUUCUGGUGAUUCUGCGAAUUCUGCUGU, the self-cleavage was 0.603.
On to GGGGGCCACAGAAGAAGCGUUCACGUCGCGGCCCCUGUCAGAUUCUGGUGACUCUGCGAAUUCUGCUGU, for which the self-cleavage amounted to 0.571.
For the variant GGGGGCCACAGAAGAAGCGUUCACGUCGCGGCGCCUGUCAGAUUCUGGUGAAUCUGCGAAUUCUGCUGU, the self-cleavage is 0.395.
With GGGGGCCACAGAAGAAGCGUUCACGUCGCGGCACCUGUCAGAUUCUGGUGAAUCUGCGAAUUCUGCUGU the figure was 0.553; with GGGGGCCACAGAAGAAGCGUUCACGUCGGGGCCCCUGUCAGAUUCUGGUGAAUCUGCGAAUUCUGCUGU, 0.105.
Under GGGGGCCACAGAAGAAGCGUUCACGUCGUGGCCCCUGUCAGAUUCUGGUGAAUCUGCGAAUUCUGCUGU stands 0.135.
With GGGGGCCACAGAAGAAGUGUUCACGUCGCGGCCCCUGUCAGAUUCUGGUGAAUCUGCGAAUUCUGCUGU the figure was 0.143; with GGGGGCCACAGAAGAAGGGUUCACGUCGCGGCCCCUGUCAGAUUCUGGUGAAUCUGCGAAUUCUGCUGU, 0.113.
For the variant GGGGGCCACAGAAGAAGCGUUCACGUCGCGGCCCCUGUCAGAUUCUGGUGAAUGUGCGAAUUCUGCUGU, the self-cleavage was 0.392.
Under GGGGGCCACAGAAGAAGCGUUCACGUCGCGGCCCCUGUCAGAUUCUGGUGAAUAUGCGAAUUCUGCUGU stands 0.311; under GGGGGCCACAGAAGAAGCGUUCACGUCGCGGGCCCUGUCAGAUUCUGGUGAAUCUGCGAAUUCUGCUGU, 0.118; under GGGGGCCACAGAAGAAGCGUUCACGUCGCGGACCCUGUCAGAUUCUGGUGAAUCUGCGAAUUCUGCUGU, 0.402.
With GGGGGCCACAGAAGAAGCGUUCACGUCGCGGUCCCUGUCAGAUUCUGGUGAAUCUGCGAAUUCUGCUGU the figure was 0.79; with GGGGGCCACAGAAGAAGCGUUCACGUCGCGGCCCCUGUCUGAUUCUGGUGAAUCUGCGAAUUCUGCUGU, 0.218.
Consider GGGGGCCACAGAAGAAGCGUUCACGUCGCGGCCCCUGUCCGAUUCUGGUGAAUCUGCGAAUUCUGCUGU, for which the self-cleavage stood at 0.209.
Under GGGGGCCACAGAAGAAGCGUUCACGUCGCGGCCCCUGUCGGAUUCUGGUGAAUCUGCGAAUUCUGCUGU stands 0.437; under GGGGGCCACAGAAGAAGCGUUCACGUCGCGGCCCUUGUCAGAUUCUGGUGAAUCUGCGAAUUCUGCUGU, 0.624.
On to GGGGGCCACAGAAGAAGCGUUCACGUCGCGGCCCAUGUCAGAUUCUGGUGAAUCUGCGAAUUCUGCUGU, for which the self-cleavage was determined as 0.149.
Under GGGGGCCACAGAAGAAGCGUUCACGUCGCGGCCCCUGUCAGAUUCUGGUGAAUCUGAGAAUUCUGCUGU stands 0.172.
With GGGGGCCACAGAAGAAGCGUUCACGUCGCGGCCCCUGUCAGAUUCUGGUGAAUCUGUGAAUUCUGCUGU the figure was 0.317.
Under GGGGGCCACAGAAGAAGCGUUCACGUCGCGGCCCCUGUCAGAUUCUGGUGAAUCUGGGAAUUCUGCUGU stands 0.212; under GGGGGCCACAGAAGAAGCGUUCACCUCGCGGCCCCUGUCAGAUUCUGGUGAAUCUGCGAAUUCUGCUGU, 0.127; under GGGGGCCACAGAAGAAGCGUUCACGUCGCGGCCCCUGUCAGAUUCUGGUCAAUCUGCGAAUUCUGCUGU, 0.591.
As to GGGGGCCACAGAAGAAGCGUUCACGUCGCGGCCCCUGUCAGAUUCUGGUAAAUCUGCGAAUUCUGCUGU, the self-cleavage is 0.809.
Under GGGGGCCACAGAAGAAGCGUUCACGUCGCGGCCCCUGUCAGAUUCUGGUUAAUCUGCGAAUUCUGCUGU stands 0.738; under GGGGGCCACAGAAGAAGCGUUCACGUCCCGGCCCCUGUCAGAUUCUGGUGAAUCUGCGAAUUCUGCUGU, 0.164.
GGGGGCCACAGAAGAAGCGUUCACGUCUCGGCCCCUGUCAGAUUCUGGUGAAUCUGCGAAUUCUGCUGU: the self-cleavage is 0.141.
Under GGGGGCCACAGAAGAACCGUUCACGUCGCGGCCCCUGUCAGAUUCUGGUGAAUCUGCGAAUUCUGCUGU stands 0.139.
With GGGGGCCACAGAAGAAACGUUCACGUCGCGGCCCCUGUCAGAUUCUGGUGAAUCUGCGAAUUCUGCUGU the figure was 0.187.
With GGGGGCCACAGAAGAAUCGUUCACGUCGCGGCCCCUGUCAGAUUCUGGUGAAUCUGCGAAUUCUGCUGU the figure was 0.0724; with GGGGGCCACAGAAGAAGCGUUCACGUCGCGGCCCCUGUCAGAUUCUGGUGAAUCUGCGGAUUCUGCUGU, 0.653; with GGGGGCCACAGAAGAAGCGUUCACGUCGCGGCCCCUGUCAGAUUCUGGUGAAUCUGCGCAUUCUGCUGU, 0.347.
Consider GGGGGCCACAGAAGAAGCGUUCACGUCGCGGCCCCUGUCAGAUUCUGGUGAAUCUGCGUAUUCUGCUGU, for which the self-cleavage stood at 0.343.
Under GGGGGCCACAGAAGAAGCGUUCACGUCGCGGCCCCUGUCAGAUUCUGGUGAAUCUGCGAGUUCUGCUGU stands 0.372.
GGGGGCCACAGAAGAAGCGUUCACGUCGCGGCCCCUGUCAGAUUCUGGUGAAUCUGCGAUUUCUGCUGU: the self-cleavage turned out to be 0.257.
On to GGGGGCCACAGAAGAAGCGUUCAUGUCGCGGCCCCUGUCAGAUUCUGGUGAAUCUGCGAAUUCUGCUGU, for which the self-cleavage was determined as 0.302.
As for GGGGGCCACAGAAGAAGCGUUCAAGUCGCGGCCCCUGUCAGAUUCUGGUGAAUCUGCGAAUUCUGCUGU, the self-cleavage turned out to be 0.236.
For GGGGGCCACAGAAGAAGCGUUCAGGUCGCGGCCCCUGUCAGAUUCUGGUGAAUCUGCGAAUUCUGCUGU, the self-cleavage was found to be 0.138.
Under GGGGGCCACAGAAGAAGCGUUCACGUCGCGGCCCCUGUCAGAUUCUGGUGAAUCUGCCAAUUCUGCUGU stands 0.653; under GGGGGCCACAGAAGAAGCGUUCACGUCGCGGCCCCUGUCAGAUUCUGGUGAAUCUGCUAAUUCUGCUGU, 0.843.
With GGGGGCCACAGAAGAAGCCUUCACGUCGCGGCCCCUGUCAGAUUCUGGUGAAUCUGCGAAUUCUGCUGU the figure was 0.125; with GGGGGCCACAGAAGAAGCGUUCACGUCGCGGCCCCUGUCAGCUUCUGGUGAAUCUGCGAAUUCUGCUGU, 0.413; with GGGGGCCACAGAAGAAGCGUUCACGUCGCGGCCCCUGUCAGGUUCUGGUGAAUCUGCGAAUUCUGCUGU, 0.41.
As to GGGGGCCACAGAAGAAGCGUUCACGUCGCGGCCCCUGUCAGAUUCUGGUGGAUCUGCGAAUUCUGCUGU, the self-cleavage came to 0.805.
With GGGGGCCACAGAAGAAGCGUUCACGUCGCGGCCCCUGUGAGAUUCUGGUGAAUCUGCGAAUUCUGCUGU the figure was 0.346; with GGGGGCCACAGAAGAAGCGUUCACGUCGCGGCCCCUGUUAGAUUCUGGUGAAUCUGCGAAUUCUGCUGU, 0.355.
As for GGGGGCCACAGAAGAAGCGUUCACGUCGCGGCCCCUGUAAGAUUCUGGUGAAUCUGCGAAUUCUGCUGU, the self-cleavage was 0.228.
With GGGGGCCACAGAAGAAGCGUUCACGUCGCGGCCGCUGUCAGAUUCUGGUGAAUCUGCGAAUUCUGCUGU the figure was 0.495.
Under GGGGGCCACAGAAGAAGCGUUCACGUCGCGGCCACUGUCAGAUUCUGGUGAAUCUGCGAAUUCUGCUGU stands 0.448; under GGGGGCCACAGAAGAAGCGUUCACGUCGCGGCCCCUGUCAGAUUCUAGUGAAUCUGCGAAUUCUGCUGU, 0.875.
With GGGGGCCACAGAAGAAGCGUUCACGUCGCGGCCCCUGUCAGAUUCUCGUGAAUCUGCGAAUUCUGCUGU the figure was 0.837.
For the variant GGGGGCCACAGAAGAAGCGUUCACGUCGCGGCCCCUGUCAGAUUCUUGUGAAUCUGCGAAUUCUGCUGU, the self-cleavage worked out at 0.876.
